Results published in patent publication US20260116987A1 (Gilead, published 2026).

T1: Human CCR4 expressed on CHO-S cells (human, UniProt P51679 1-360)
T1 construct: whole, on cells; also called CCR4-expressing CHO-S cells
T1 sequence (looked up): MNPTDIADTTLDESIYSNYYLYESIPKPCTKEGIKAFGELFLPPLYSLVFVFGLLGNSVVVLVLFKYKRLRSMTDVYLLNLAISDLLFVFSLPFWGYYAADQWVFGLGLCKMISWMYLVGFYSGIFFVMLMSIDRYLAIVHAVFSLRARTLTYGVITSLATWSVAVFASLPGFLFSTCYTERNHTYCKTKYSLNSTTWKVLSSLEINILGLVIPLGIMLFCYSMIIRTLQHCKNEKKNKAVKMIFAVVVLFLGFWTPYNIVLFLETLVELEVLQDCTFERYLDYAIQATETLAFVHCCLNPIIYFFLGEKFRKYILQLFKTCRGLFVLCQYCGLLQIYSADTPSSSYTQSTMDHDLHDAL

B1: 19-O07 chimera (human IgG1) (antibody)
heavy: not shown
light: DVVMTQTPLTLSVTIGQPASISCKSSQSLLYSNGKTYLNWLLQRPGQSPKRLIYLVSKLDSGVPDRFTGSGSGTDFTLKISRVEAEDLGVYYCVQGTRFPWTFGGGTNLEIKRTVAAPSVFIFPPSDEQLKSGTASVVCLLNNFYPREAKVQWKVDNALQSGNSQESVTEQDSKDSTYSLSSTLTLSKADYEKHKVYACEVTHQGLSSPVTKSFNRGEC
notes: also called 19-007; 19-O07 chimeric antibody
B2: 13-E16 chimera (human IgG1) (antibody)
heavy: not shown
light: QIVLTQSPAIMSASPGEKVTITCSASSSVSYMHWFQQKPGTSPKLWIYSTSNLASGVPARFSGSGSGTSYFLTISRMEAEDAATYYCQQRSSYPYTFGGGTKLERKRTVAAPSVFIFPPSDEQLKSGTASVVCLLNNFYPREAKVQWKVDNALQSGNSQESVTEQDSKDSTYSLSSTLTLSKADYEKHKVYACEVTHQGLSSPVTKSFNRGEC
notes: also called 13-E16 chimeric antibody
B3: 6-B09 chimera (human IgG1) (antibody)
heavy: not shown
light: QIVLTQSPAIMSASPGEKVTITCSASSSVIYMHWFQQKPGTSPKLWIYATSNLASGVPARFSGSGSGTSYSLTISRMEAEDAATYYCQQRSSYPLTFGAGTKLELKRTVAAPSVFIFPPSDEQLKSGTASVVCLLNNFYPREAKVQWKVDNALQSGNSQESVTEQDSKDSTYSLSSTLTLSKADYEKHKVYACEVTHQGLSSPVTKSFNRGEC
notes: also called 6-B09 chimeric antibody
B4: 7-B16 chimera (human IgG1) (antibody)
heavy: not shown
light: DIVMTQAEPSVPVTPGESISISCRSSKSLLHSNGNTYLYWFLQRPGQSPQLLIYRMSNLASGVPDRFSGSGSGTAFTLRISRVEAEDVGVYYCMQHLEYPFTFGGGTKLEIKRTVAAPSVFIFPPSDEQLKSGTASVVCLLNNFYPREAKVQWKVDNALQSGNSQESVTEQDSKDSTYSLSSTLTLSKADYEKHKVYACEVTHQGLSSPVTKSFNRGEC
notes: also called 7-B16.hG1 Chimera; Wild type 7-B16
B5: 1-K16 chimera (human IgG1) (antibody)
heavy: not shown
light: DIVMTQAAPSVPVTPGESVSISCRSSKSLLHSNGNTYLYWFLQRPGQSPQLLIYRMSNLASGVPDRFSGSGSGTAFTLRISRVEAEDVGVYYCMQHLEYPFTFGAGTKLELKRTVAAPSVFIFPPSDEQLKSGTASVVCLLNNFYPREAKVQWKVDNALQSGNSQESVTEQDSKDSTYSLSSTLTLSKADYEKHKVYACEVTHQGLSSPVTKSFNRGEC
notes: also called 1-K16 chimeric antibody
B6: 7B16-H1.001 (CDR H1 swapped mutant of 7-B16) (antibody, V domains shown)
VH: EVQLVESGGGLVQPKGSLKLSCAASGFTFSGSAMHWVRQAPGKGLEWVARIRSKSNNYATYYADSVKDRFTISRDDSQSMLYLQMNNLKTEDTAMYYCVRGLLRYRFFDVWGAGTTVTVSS
VL: DIVMTQAEPSVPVTPGESISISCRSSKSLLHSNGNTYLYWFLQRPGQSPQLLIYRMSNLASGVPDRFSGSGSGTAFTLRISRVEAEDVGVYYCMQHLEYPFTFGGGTKLEIKR
notes: also called CDR swapped variant H1
B7: 1-K17 chimera (human IgG1) (antibody)
heavy: not shown
light: DVVMTQTPLSLPVSLGDQASISCRSSQSLVHSNGNTYLYWYLQKPGQSPKLLIYKVSNRFSGVPDRFSGSGSGTDFTLKISRVEAEDLGVYFCSQSTHVPYTFGGGTKLEIKRTVAAPSVFIFPPSDEQLKSGTASVVCLLNNFYPREAKVQWKVDNALQSGNSQESVTEQDSKDSTYSLSSTLTLSKADYEKHKVYACEVTHQGLSSPVTKSFNRGEC
notes: also called 1-K17.hG1 Chimera

Assays:
[1] = biological target: T2, Human CCR8 (C-C chemokine receptor type 8) expressed on CHO-S cells (human, UniProt P51685 1-355); assay: flow cytometry epitope binning, tandem format, human CCR8-overexpressing cells; competitor 6-B09
T2 construct: also called huCCR8; human CCR8-expressing CHO-S cells
T2 sequence (P51685 whole entry): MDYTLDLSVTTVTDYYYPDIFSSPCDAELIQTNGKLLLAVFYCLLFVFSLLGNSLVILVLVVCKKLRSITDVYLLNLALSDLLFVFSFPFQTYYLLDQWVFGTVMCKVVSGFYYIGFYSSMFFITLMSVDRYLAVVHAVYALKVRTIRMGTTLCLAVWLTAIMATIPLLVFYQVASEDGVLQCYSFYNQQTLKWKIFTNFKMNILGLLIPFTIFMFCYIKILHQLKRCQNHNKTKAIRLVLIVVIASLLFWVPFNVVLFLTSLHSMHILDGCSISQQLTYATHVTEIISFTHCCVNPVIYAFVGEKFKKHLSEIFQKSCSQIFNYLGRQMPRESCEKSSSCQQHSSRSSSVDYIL
Protocol: (§1) A subset of antibodies against human CCR8 were epitope binned using flow cytometry method in tandem format. Briefly, one set of antibodies was biotinylated. Human CCR8-overexpressing cells were incubated at 4° C., with the non-biotinylated antibodies at 10 μg/mL for 1 hour, then without washing the biotinylated antibodies were added at 10 μg/mL. After a further 1-hour incubation, cells were washed three times and then stained with streptavidin-phycoerythrin (PE-strep) secondary antibody for 30 minutes. Binding competition was determined by detecting PE by flow cytometry. The response values were normalized as the % of the maximum binding of the individual antibody.

[2] = biological target: T1, Human CCR4 expressed on CHO-S cells; assay: flow cytometry
[3] = biological target: T2, Human CCR8 (C-C chemokine receptor type …); assay: flow cytometry epitope binning, tandem format, human CCR8-overexpressing cells; competitor 19-O07
Protocol: as §1

[4] = biological target: T3, Human CCR8 on human CCR8-overexpression lipoparticles (human, UniProt P51685 1-355); assay: sequential format ELISA on human CCR8-overexpression lipoparticles; competitor 1-K17
T3 sequence (P51685 whole entry): as above

[5] = biological target: T3, Human CCR8 on human CCR8-overexpression …; assay: sequential format ELISA on human CCR8-overexpression lipoparticles; competitor 7-B16
[6] = biological target: T2, Human CCR8 (C-C chemokine receptor type …); assay: flow cytometry epitope binning, tandem format, human CCR8-overexpressing cells; competitor 7-B16
Protocol: as §1

[7] = biological target: T2, Human CCR8 (C-C chemokine receptor type …); assay: flow cytometry epitope binning, tandem format, human CCR8-overexpressing cells; competitor 1-K16
Protocol: as §1

[8] = biological target: T2, Human CCR8 (C-C chemokine receptor type …); assay: flow cytometry epitope binning, tandem format, human CCR8-overexpressing cells; competitor 1-K17
Protocol: as §1

[9] = biological target: T3, Human CCR8 on human CCR8-overexpression …; assay: sequential format ELISA on human CCR8-overexpression lipoparticles; competitor 6-B09
[10] = biological target: T3, Human CCR8 on human CCR8-overexpression …; assay: sequential format ELISA on human CCR8-overexpression lipoparticles; competitor 19-O07
[11] = biological target: T3, Human CCR8 on human CCR8-overexpression …; assay: sequential format ELISA on human CCR8-overexpression lipoparticles; competitor 1-K16
[12] = biological target: T2, Human CCR8 (C-C chemokine receptor type …); assay: cell-based or functional assay
[13] = biological target: T2, Human CCR8 (C-C chemokine receptor type …); assay: cell-based or functional assay; remark: listed apart in the source
[14] = biological target: T2, Human CCR8 (C-C chemokine receptor type …); assay: KinExA, on-cell, human CCR8-expressing CHO-S cells
Protocol: (§2) Samples were gently rocked for 2.5 hours at 37° C. to achieve equilibrium.
(§3) To determine the rate of association (kₒₙ), the same immobilized biotinylated goat anti-human IgG-PMMA column was used as the capture reagent for kinetic experiments.
(§4) Data analysis was performed using KinExA Pro software at Sapidyne Instruments Inc to generate Kd and kₒₙ, The rate of dissociation (koff) was calculated based on the equation below.

[15] = biological target: T2, Human CCR8 (C-C chemokine receptor type …); assay: cell-based or functional assay; remark: listed apart in the source
[16] = biological target: T2, Human CCR8 (C-C chemokine receptor type …); assay: flow cytometry, human CCR8-overexpressing against parental CHO-S cells
Protocol: The first category of variant (single substitution mutation in the CDR H3) included variants in which each amino acid residue of the heavy chain CDR 3 (i.e., , CDR H3) was iteratively substituted with an alanine residue.
(§5) CCR8 binding was determined using flow cytometry according to the same methods used in Example 4, Briefly, antibodies were screened for specific binding to human CCR8 by flow cytometry using human CCR8-overexpressing and parental CHO—S cell line. Antibodies specifically binding to human CCR8 were also tested for binding to CCR4 by flow cytometry.

[17] = biological target: T2, Human CCR8 (C-C chemokine receptor type …); assay: KinExA, on-cell, human CCR8-expressing CHO-S cells; calculated from Kd and kon
Protocol: as §2, §3, §4

[18] = biological target: T2, Human CCR8 (C-C chemokine receptor type …); assay: flow cytometry on CHO cells expressing CCR8, EC50 column
Protocol: as §5

Row | Binder | % of the maximum binding [1] | binding result [2] | % of the maximum binding [3] | ELISA epitope binning signal [4] | ELISA epitope binning signal [5] | % of the maximum binding [6] | % of the maximum binding [7] | % of the maximum binding [8] | ELISA epitope binning signal [9] | ELISA epitope binning signal [10] | ELISA epitope binning signal [11] | IC50, antagonist activity in DiscoverX PathHunter beta-arrestin assay with 13.7 nM human CCL1 [12] | EC50 of ADCC function (Promega ADCC reporter bioassay) [13] | Kd [14] | kon [14] | ADCC (Fold Induction) [15] | Flow (fold over parent) [16] | koff [17] | binding result [18]
1 | B1 | 39% | no binding | 54% | 0.784 | 1.02 | 108% | 109% | 91% | 0.679 | 0.817 | 0.882 | 995 µg/mL | – | – | – | – | – | – | –
2 | B2 | – | no binding | – | – | – | – | – | – | – | – | – | 12.6 µg/mL | 0.0549 µg/mL | – | – | – | – | – | –
3 | B3 | 44% | no binding | 32% | 0.82 | 0.776 | 89% | 102% | 94% | 0.512 | 0.577 | 0.8 | – | – | – | – | – | – | – | –
4 | B4 | 175% | no binding | 148% | 0.771 | 0.655 | 41% | 14% | 18% | 1.04 | 0.437 | 0.101 | 0.09 µg/mL | 0.00691 µg/mL | 0.22 nM | 6.08e+06 M⁻¹ s⁻¹ | 23.3 fold | 10 fold | 0.00134 s⁻¹ | –
5 | B5 | 167% | no binding | 149% | 0.794 | 0.758 | 88% | 31% | 32% | 0.964 | 1.49 | 0.264 | 4.55 µg/mL | – | – | – | – | – | – | –
6 | B6 | – | – | – | – | – | – | – | – | – | – | – | – | – | – | – | – | – | – | no binding
7 | B7 | 102% | no binding | 28% | 0.124 | 0.047 | 14% | 12% | 11% | 0.651 | 0.268 | 0.036 | 0.071 µg/mL | 0.00618 µg/mL | 0.018 nM | 7.81e+06 M⁻¹ s⁻¹ | – | – | 0.000144 s⁻¹ | –
